Assay results reported in the DeepSol protein solubility set.

experiment: soluble on expression in E. coli; label from the status in PepcDB or PDB records

Sequence	soluble on expression in E. coli
MGHHHHHHGGHMSLTKKLHIKTWGCQMNEYDSSKMADLLDATHGYQLTDVAEEADVLLLNTCSIREKAQEKVFHQLGRWKLLKEKNPDLIIGVGGCVASQEGEHIRQRAHYVDIIFGPQTLHRLPEMINSVRGDRSPVVDISFPEIEKFDRLPEPRAEGPTAFVSIMEGCNKYCTYCVVPYTRGEEVSRPSDDILFEIAQLAAQGVREVNLLGQNVNAWRGENYDGTTGSFADLLRLVAAIDGIDRIRFTTSHPIEFTDDIIEVYRDTPELVSFLHLPVQSGSDRILNLMGRTHTALEYKAIIRKLRAARPDIQISSDFIVGFPGETTEDFEKTMKLIADVNFDMSYSFIFSARPGTPAADMVDDVPEEEKKQRLYILQERINQQAMAWSRRMLGTTQRILVEGTSRKSIMELSGRTENNRVVNFEGTPDMIGKFVDVEITDVYPNSLRGKVVRTEDEMGLRVAETPESVIARTRKENDLGVGYYQPEGGS	soluble
MGHHHHHHGSSSCAVSGASGCLPPARSRIFKIIVIGDSNVGKTCLTYRFCAGRFPDRTEATIGVDFRERAVDIDGERIKIQLWDTAGQERFRKSMVQHYYRNVHAVVFVYDMTNMASFHSLPAWIEECKQHLLANDIPRILVGNKCDLRSAIQVPTDLAQKFADTHSMPLFETSAKNPNDNDHVEAIFMTLAHKLKSH	soluble
MGHHHHHHSHAAAIAGAKLRKVSRMEDTSFPSGGNAIGVNSASSKTDTGRGNGPLPLGGSGLMEEMSALLARRRRIAEKGSTIETEQKEDKGEDSEPVTSKASSTSTPEPTRKPWERTNTMNGSKSPVISRPKSTPLSQPSANGVQTEGLDYDRLKQDILDEMRKELTKLKEELIDAIRQELSKSNTA	soluble
MGHHHHHHSHAAMAVEPTQIQLSKRWREIESKFAQFRRLNFAQIHTVREETMMVMTEDMPLEISYVPSTYLTEITHVSQALLEVEQLLNAPDLCAKDFEDLFKQEESLKNIKDSLQQSSGRIDIIHSKKTAALQSATPVERVKLQEALSQLDFQWEKVNKMYKDRQGRFDRSVEKWRRFHYDIKIFNQWLTEAEQFLRKTQIPENWEHAKYKWYLKELQDGIGQRQTVVRTLNATGEEIIQQSSKTDASILQEKLGSLNLRWQEVCKQLSDRKKRLEEQKNILSEFQRDLNEFVLWLEEADNIASIPLEPGKEQQLKEKLEQVKLLVEELPLRQGILKQLNETGGPVLVSAPIS	not soluble
MGHHHHHHSHDHYGCKQCSSLRSIQNLNSLVDKTSWIPSSVAEALGIVPLQYVFVMTFTLDDGTGVLEAYLMDSDKFFQIPASEVLMDDDLQKSVDMIMDMFCPPGIKIDAYPWLECFIKSYNVTNGTDNQICYQIFDTTVAEDVI	not soluble
MGHHHHHHSHEKMNGSHRDQGSSALSGVGGIRLPNGKLKCDICGIICIGPNVLMVHKRSHTGERPFQCNQCGASFTQKGNLLRHIKLHSGEKPFKCHLCNYACRRRDALTGHLRTHSVGKPHKCGYCGRSYKQRSSLEEHKERCHNYLESMGLPGTLYPVIKEETNHSEMAEDLCKIGSERSLVLDRLASNVAKRKSSMP	soluble
MGHHHHHHSHELLVVGSRPELGRWEPRGAVRLRPAGTAAGDGALALQEPGLWLGEVELAAEEAAQDGAEPGRVDTFWYKFLKREPGGELSWEGNGPHHDRCCTYNENNLVDGVYCLPIGHWIEATGHTNEMKHTTDFYFNIAGHQAMHYSRILPNIWLGSCPRQVEHVTIKLKHELGITAVMNFQTEWDIVQNSSGCNRYPEPMTPDTMIKLYREEGLAYIWMPTPDMSTEGRVQMLPQAVCLLHALLEKGHIVYVHCNAGVGRSTAAVCGWLQYVMGWNLRKVQYFLMAKRPAVYI	not soluble
MGHHHHHHSHENKKAKPVPWVEKYRPKCVDEVAFQEEVVAVLKKSLEGADLPNLLFYGPPGTGKTSTILAAARELFGPELFRLRVLELNASDERGIQVVREKVKNFAQLTVSGSRSDGKPCPPFKIVILDEADSMTSAAQAALRRTMEKESKTTRFCLICNYVSRIIEPLTSRCSKFRFKPLSDKIQQQRLLDIAKKENVKISDEGIAYLVKVSEGDLRKAITFLQSATRLTGGKEITEKVITDIAGVIPAEKIDGVFAACQSGSFDKLEAVVKDLIDEGHAATQLVNQLHDVVVENNLSDKQKSIITEKLAEVDKCLADGADEHLQLISLCATVMQQLSQNC	soluble
MGHHHHHHSHINTPEQTVPYGLSNYRGSFRGKRSAGPLPGNLQLSHRPHLRCACVGRYDKACLHFCTQTLDVSSNSRTAEKTDKEEEGKVRGANRGLCQRRLKSRTNKASRL	not soluble
MGHHHHHHSHKKLGLKVGIEIHQQLDTKHKLFCLCPTLTREVEESNFEFFRYLRLKRSEIGEEDRAAKEEVERSRRFIYKYYDTTCLVEADEEPPREVNREALLIAIQVAKMLNMEVVDEVHVMRKIVIDGSNTTGFQRTALVAFGGFLEVDGKRVGVATLCLEEEACRKVEDGEGYAVYSLDRLGIPLVEIGTEPDIDSPEMAKKVAARLGMILRSTGKVKRGLGTIRQDVNISIRDGARVEIKGVQELDILDKIVEYEVLRQVNLLKIR	soluble
MGHHHHHHSHKWELCPVTIISWLNLFLQVDALKDAPKVLLPQYSQETFIQIAQLLDLCILAIDSLEFQYRILTAAALCHFTSIEVVKKASGLEWDSISECVDWMVPFVNVVKSTSPVKLKTFKKIPMEDRHNIQTHTNYLAMLEEVNYINTFRKGGQLSPVCNGGIMT	not soluble
MGHHHHHHSHMAALKEDRSYGLSCGRVSDGSKVSVFHVKLTDSALRAFESYRARQDSVSLRPSIRFQGSQGHISIPQPDCPAEARTFSFYLSNIGRDNPQGSFDCIQQYVSSHGEVHLDCLGSIQDKITVCATDDSYQKARQSMAQAEEETRSRSAIVIKAGGRYLGKKVQFRK	not soluble
MGHHHHHHSHMACYIYQLPSWVLDDLCRNMDALSEWDWMEFASYVITDLTQLRKIKSMERVQGVSITRELLWWWGMRQATVQQLVDLLCRLELYRAAQIILNWKPAPEI	not soluble
MGHHHHHHSHMADVEDGEETCALASHSGSSGSKSGGDKMFSLKKWNAVAMWSWDVECDTCAICRVQVMDACLRCQAENKQEDCVVVWGECNHSFHNCCMSLWVKQNNRCPLCQQDWVVQRIGK	not soluble
MGHHHHHHSHMAYEISKKVLHIVGKTNATYKLIEEGDKILLGLSGGKDSIMLACILARMQKHAPFKFDFKAVTVHYGLGEDLKWLSDLCQEQGIEHEIIYTQIAATINEKRREKSSFCSFCSRLRRGTLYSKALEEGYNKVAIAHHLDDAVESFFMNFTYNGSLRSMPPIYRAENGLLVIRPLIKVREASSIHFVTSQNIPVAPDCNCPAKQPTSDKPPIARLATKNFLKEMQNLHPRFFDSLENAFNNVQANSFSDAKYLDA	not soluble
MGHHHHHHSHMAYNKEEKIKSLNRMQYEVTQNNGTEPPFQNEYWDHKEEGLYVDIVSGKPLFTSKDKFDSQCGWPSFTKPIEEEVEEKLDTSHGMIRTEVRSRTADSHLGHVFNDGPGPNGLRYCINSAALRFVPKHKLKEEGYESYLHLFNK	soluble
MGHHHHHHSHMCVARVYHGWLFEGLGRDKAEELLQLPDTKVGSFMIRESETKKGFYSLSVRHRQVKHYRIFRLPNNWYYISPRLTFQCLEDLVNHYSEVADGLCCVLTTPCLTQSTAAPAVRASSSPVTLRQKTVDWRRVSRLQEDPEGTENPLGVDESLFSYGLRESIASYLSLTSEDNTSFDRKKKSISLMYGGSKRKSSFFSSPPYFED	soluble
MGHHHHHHSHMDELVHDLASALEQTSEQNKLGELWEEMALSPRQQRRQLRKRRGRKRRSDFTHLAEHTCCYSEASESSLDEATKDCREVAPVTNFSDSDDTMVAKRHPALNAIVKSKQHSWHESDSFTENAPCRPLRRRRKVKRVTSEVAASLQQKLKVSDWSYERGCRFKSAKKQRLSRWKENTPWTSSGHGLCESAENRTFLSKTGRKERMECETDEQKQGSDENMSEW	not soluble
MGHHHHHHSHMEALARLHLTVTRAYKVNTDINFEVFIHKVDGLSDDHKIETQRDIHQRANDDLADAGLEKIHLSFYLTSIYDHSIFEAFSKVVQKLIPQLPTLENLLNIFISNSGIEKAFLFDVVSKIYIATDSTPVDMQTYELCCDMIDVVIDISCIYGLKEDGAGTPYDKESTAIIKLNNTTVLYLKEVTKFLALVCFVREESFERKGLIDYNFHCFRKAIHEVFEVRMKVVKSRKVQNRLQKKKRATPNGTPRVLL	soluble
MGHHHHHHSHMEGTYITSEHSYQKPQSFGQDCKSLADPGSSDDDDVSSLEEEQEFHMRSKNSLQYSAKEHGMPEKNPAEGNTVFVYNDKKGTEDPGDSHLQWQLNLLTHIENVQNEVTSRMDLIEKEVDVLESWLDFTGELEPPDPLARLPQLKRHIKQLLIDMGKVQQIATLCSV	not soluble
MGHHHHHHSHMESVALYSFQATESDELAFNKGDTLKILNMEDDQNWYKAELRGVEGFIPKNYIRVKPHPWYSGRISRQLAEEILMKRNHLGAFLIRESESSPGEFSVSVNYGDQVQHFKVLREASGKYFLWEEKFNSLNELVDFYRTTTIAKKRQIFLRDEEPLLKSPGACFAQAQFDFSAQDPSQLSFRRGDIIEVLERPDPHWWRGRSCGRVGFFPRSYVQPVHL	not soluble
MGHHHHHHSHMFGGDTLYELRCSLQLAETEREGGFSPHISPFTAVNDLGHLLGRAGFNTLTVDTDEIQVNYPGMFELMEDLQGMGESNCAWNRKALLHRDTMLAAAAVYREMYRNEDGSVPATYQIYYMIGWKYHESQARPAERGSATVSFGELGKINNLMPPGKKSQ	not soluble
MGHHHHHHSHMFLVLKKKHICHRNLVNILQLNMYVCCLDKCNHCKHLYDLGFCFYFEMGAFLFTSSLKTKNCFCKEMRFFLNNKKCLADSLLNKNLPNFLIDYFKPFVTWYSFASQFRFRVITFPLFLRKMKKVILLSEGERHSFIFFFFFFFFL	not soluble
MGHHHHHHSHMGAGLSADRRRSLCAREFRKLGFSNSNPAQDLERVPPGLLALDNMLYFSRNAPSAYSRFVLENSSREDKHECPFARGSIQLTVLLCELLRVGEPCSETAQDFSPMFFGQDQSFHELFCVGIQLLNKTWKEMRATQEDFDKVMQVVREQLARTLALKPTSLELFRTKVNALTYGEVLR	soluble
MGHHHHHHSHMGHLDKEGLCTQGSSFSWLLRVLNDGISLGLTPCLWDMYLLEGEQMLMLITSIAFKVQRSLYEETNKETWGPATPRALKGTGRARPICESLHSSLQALTASESSRGPSLLQTPPRVPGQQALSRGDKGISVSLSLPSLPSRRGRCGRIIG	not soluble
MGHHHHHHSHMGLWQQISNCMPDLALCSDIKFFLRCLERWLNRNSSALQLPARSTQKEIISAFPTKVPSSSHWDWLDSGCSPQKASRSRVGCRLTREAQGVRELPPLAKGSCEGLCREERGIPAQILCFPHGLCNPQTRRFPWVPAPPGPWVSSKKLGSHLGRH	not soluble
MGHHHHHHSHMHGWTWSVPKFMKRMKVPDYKDKAVFGVPLIVHVQRTGQPLPQSIQQALRYLRSNCLDQVGLFRKSGVKSRIHALRQMNENFPENVNYEDQSAYDVADMVKQFFRDLPEPLFTNKLSETFLHIYQYVSKEQRLQAVQAAILLLADENREVLQTLLCFLNDVVNLVEENQMTPMNLAVCLAPSLFHLNLL	not soluble
MGHHHHHHSHMIGPIIDKLEKVAVRGGDKKLKPEYDIMCKVKSWVIDQKKPVRFYHDWNDKEIEVLNKHLFLTSKPMVYLVNLSEKDYIRKKNKWLIKIKEWVDKYDPGALVIPFSGALELKLQELSAEERQKYLEANMTQSALPKIIKAGFAALQLEYFFTAGPDEVRAWTIRKGTKAPQAAGKIHTDFEKGFIMAEVMKYEDFKEEGSENAVKAAGKYRQQGRNYIVEDGDIIFFKFNTPRQPKKK	not soluble
